According to the supplement of paper PMC7877785:
± gives the uncertainty stated by the source.

Experiment: self-splicing fitness, log relative to wild type (ln ratio); higher = more splicing; Tetrahymena group I intron in knt gene, E. coli kanamycin selection, DiMSum; sequences stand for … in CUCUCU…GGAGGGAAAAGUUAUCAGGCAUGCACCUGGUAGCUAGUCUUUAAACCAAUAGAUUGCAUCGGUUUAAAAGGCAAGACCGUCAAAUUGCGGGAAAGGGGUCAACAGCCGUUCAGUACCAAGUCUCAGGGGAAACUUUGAGAUGGCCUUGCAAAGGGUAUGGUAAUAAGCUGACGGACAUGGUCCUAACCACGCAGCCAAGUCCUAAGUCAACAGAUCUUCUGUUGAUAUGGAUGCAGUUCACAGACUAAAUGUCGGUCGGGGAAGAUGUAUUCUUCUCAUAAGAUAUAGUCGGACCUCUCCUUAAUGGGAGCUAGCGGAUGAAGUGAUGCAACACUGGAGCCGCUGGGAACUAAUUUGUAUGCGAAAGUAUAUUGAUUAGUUUUGGAGUACUCGUGGUCG
Method in brief: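 Fitness was computed with DiMSum as the error-weighted combination of replicate fold changes, kanamycin versus none, each normalised to wild type. The library randomised all eight intron nucleotides of the P1ex region, with the intron placed in the knt kanamycin-resistance gene on pET-22b(+) in E. coli BL21(DE3). Six replicate transformations were grown overnight at 37°C or 30°C on LB agar with or without 25 μg/mL kanamycin, plus 100 μg/mL carbenicillin, 50 μM IPTG and 0.2% rhamnose. Pooled colonies were amplicon-sequenced on an Illumina HiSeq 2500.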

Row | Sequence | self-splicing fitness (ln) (30 °C) | self-splicing fitness (ln) (37 °C)
1 | GUCUAGCAAUAUUACGCCGC | -3.25 ± 0.38 | 
2 | ACGUAGCAAUAUUACGGCGC | -1.11 ± 0.083 | -0.695 ± 0.098
3 | UAAUAGCAAUAUUACGGUGG | -4.08 ± 0.25 | -1.12 ± 0.12
4 | UGUGAGCAAUAUUACGUUCU | -3.79 ± 0.33 | -3.12 ± 0.4
5 | UUAAAGCAAUAUUACGUUGC | -3.24 ± 0.28 | -2.66 ± 0.3
6 | CCGUAGCAAUAUUACGAUUU | -3.55 ± 0.17 | -2.08 ± 0.17
7 | CCCCAGCAAUAUUACGUCGG | -3.66 ± 0.16 | -2.86 ± 0.33
8 | UCUCAGCAAUAUUACGAACC | -1.84 ± 0.18 | -1.69 ± 0.28
9 | UAUCAGCAAUAUUACGUCCU | -1.44 ± 0.18 | -1.01 ± 0.2
10 | CCUUAGCAAUAUUACGCUCC |  | -1.44 ± 0.5
11 | UAGCAGCAAUAUUACGCCAA | -1.78 ± 0.12 | -0.98 ± 0.1
12 | GUGAAGCAAUAUUACGAACU | -2.15 ± 0.1 | -0.516 ± 0.095
13 | AACAAGCAAUAUUACGAUGC | -2.67 ± 0.14 | -0.922 ± 0.11
14 | CGUCAGCAAUAUUACGGCCU | -0.913 ± 0.17 | -1.79 ± 0.29
15 | UUGGAGCAAUAUUACGGCCU | -2.26 ± 0.29 | -1.25 ± 0.27
16 | CCGAAGCAAUAUUACGCGCC | -2.58 ± 0.23 | -2.27 ± 0.3
17 | CUGAAGCAAUAUUACGCAAU | -3.09 ± 0.24 | -2.67 ± 0.36
18 | GGUUAGCAAUAUUACGGCCC | -1.23 ± 0.43 | 
19 | ACUUAGCAAUAUUACGUCCC | -0.637 ± 0.21 | -0.072 ± 0.25
20 | CUCCAGCAAUAUUACGCGCG | -3.29 ± 0.17 | -0.928 ± 0.15
21 | CGCGAGCAAUAUUACGGUCC | -3.29 ± 0.4 | -2.12 ± 0.44
22 | AGUUAGCAAUAUUACGCUAU | -2.29 ± 0.17 | -1.21 ± 0.14
23 | UGCCAGCAAUAUUACGAGAG | -4.28 ± 0.21 | -2.56 ± 0.14
24 | CCCCAGCAAUAUUACGUGUU | -3.79 ± 0.12 | -3.3 ± 0.17
25 | GUCUAGCAAUAUUACGCGGU | -1.78 ± 0.26 | -1.04 ± 0.38
26 | AUUAAGCAAUAUUACGCACC | -1.52 ± 0.19 | 0.0961 ± 0.28

Row | Sequence | self-splicing fitness (ln) (30 °C) | self-splicing fitness (ln) (37 °C)
27 | ACAGAGCAAUAUUACGGCCG | -2.2 ± 0.27 | -1.33 ± 0.25
28 | AGAAAGCAAUAUUACGAUAU | -1.07 ± 0.096 | -0.792 ± 0.11
29 | UAAGAGCAAUAUUACGAGCA | -3.18 ± 0.29 | -0.84 ± 0.14
30 | GAUAAGCAAUAUUACGCUAC | -2.85 ± 0.4 | -2.31 ± 0.34
31 | CCAAAGCAAUAUUACGGGUC | -4.39 ± 0.23 | -3.1 ± 0.22
32 | GUCUAGCAAUAUUACGCACA | -0.72 ± 0.12 | -0.113 ± 0.14
33 | GGGCAGCAAUAUUACGACCG | -0.512 ± 0.14 | 0.369 ± 0.17
34 | CCACAGCAAUAUUACGACGG | -3.63 ± 0.12 | -1.63 ± 0.1
35 | UGAAAGCAAUAUUACGGCGG | -1.03 ± 0.085 | -0.221 ± 0.14
36 | CGAGAGCAAUAUUACGAUUU | -1.8 ± 0.33 | -2.17 ± 0.37
37 | CCAGAGCAAUAUUACGUCGU | -3.93 ± 0.24 | -2.19 ± 0.21
38 | GAUUAGCAAUAUUACGUGGG | -3.52 ± 0.32 | -2.47 ± 0.27
39 | ACUAAGCAAUAUUACGUUGA | -2.67 ± 0.12 | -1.92 ± 0.13
40 | AGCAAGCAAUAUUACGCCGG | -3.71 ± 0.37 | -1.81 ± 0.24
41 | GAGAAGCAAUAUUACGGAUA | -2.16 ± 0.2 | -0.942 ± 0.21
42 | GCUUAGCAAUAUUACGCUCG | -0.579 ± 0.1 | -0.0325 ± 0.16
43 | CUAUAGCAAUAUUACGCGCA | -2.97 ± 0.46 | -1.65 ± 0.47
44 | CCUGAGCAAUAUUACGCGUG | -3.05 ± 0.19 | -2.82 ± 0.22
45 | CGUCAGCAAUAUUACGGUGG | -1.26 ± 0.071 | -0.629 ± 0.096
46 | AGUGAGCAAUAUUACGACAA | -2.34 ± 0.23 | -0.743 ± 0.18
47 | UGGUAGCAAUAUUACGAGCU | -2.09 ± 0.093 | -1.02 ± 0.12
48 | UAGCAGCAAUAUUACGACCG | -0.887 ± 0.13 | -0.0437 ± 0.22
49 | UUGGAGCAAUAUUACGUUAC | -3.66 ± 0.33 | -2.25 ± 0.24
50 | GCGUAGCAAUAUUACGCCCG |  | 0.544 ± 0.44
51 | CACGAGCAAUAUUACGUUGU | -3.37 ± 0.15 | -2.8 ± 0.18
52 | AUAGAGCAAUAUUACGUUAG | -1.39 ± 0.11 | -1.21 ± 0.16

Row | Sequence | self-splicing fitness (ln) (30 °C) | self-splicing fitness (ln) (37 °C)
53 | UGGCAGCAAUAUUACGCAAU | -2.31 ± 0.099 | -1 ± 0.12
54 | CUGUAGCAAUAUUACGCGAG | -3.06 ± 0.29 | -2.13 ± 0.25
55 | CGUUAGCAAUAUUACGUCAA |  | -1.41 ± 0.38
56 | UUCGAGCAAUAUUACGGGAA | -1.74 ± 0.16 | -0.981 ± 0.15
57 | CGGUAGCAAUAUUACGCCAU | -1.58 ± 0.32 | -2.46 ± 0.39
58 | GAAUAGCAAUAUUACGAACG | -1.64 ± 0.1 | -0.336 ± 0.11
59 | CUAAAGCAAUAUUACGAUCU | -4.75 ± 0.23 | -2.5 ± 0.18
60 | ACAUAGCAAUAUUACGUCUA | -2.05 ± 0.096 | -1.1 ± 0.083
61 | CAAAAGCAAUAUUACGCCCG | -0.0339 ± 0.13 | 0.354 ± 0.15
62 | CUGGAGCAAUAUUACGCGAC | -0.944 ± 0.27 | -1.84 ± 0.36
63 | UGGAAGCAAUAUUACGUAAU | -3.03 ± 0.18 | -0.953 ± 0.16
64 | ACCUAGCAAUAUUACGGAGG | -2.4 ± 0.14 | -2.16 ± 0.21
65 | CAGGAGCAAUAUUACGGGCC | -3.76 ± 0.42 | 
66 | GGUGAGCAAUAUUACGCCCU | -1.66 ± 0.41 | 
67 | UGGCAGCAAUAUUACGACAC |  | -0.701 ± 0.31
68 | GCCUAGCAAUAUUACGCCAC | -2.82 ± 0.26 | -2.2 ± 0.23
69 | CAACAGCAAUAUUACGGUCA | -1.16 ± 0.066 | -0.339 ± 0.069
70 | CAUGAGCAAUAUUACGGCUA | -2.75 ± 0.45 | -1.87 ± 0.2
71 | CGAGAGCAAUAUUACGAUAA | -4.29 ± 0.46 | -2.37 ± 0.45
72 | CCUGAGCAAUAUUACGUAUU | -2.38 ± 0.16 | -2.98 ± 0.21
73 | CCACAGCAAUAUUACGGACA | -3.12 ± 0.21 | -2.51 ± 0.18
74 | GCUCAGCAAUAUUACGCUGG | -2.98 ± 0.16 | -2.27 ± 0.22
75 | GACCAGCAAUAUUACGACAA | -0.854 ± 0.099 | -0.621 ± 0.13
76 | GCUGAGCAAUAUUACGCGAG | -2.52 ± 0.16 | -1.83 ± 0.23
77 | AUCUAGCAAUAUUACGGAAC | -4.03 ± 0.37 | -1.75 ± 0.24
78 | CUACAGCAAUAUUACGACGA | -2.65 ± 0.15 | -2.02 ± 0.18
